How the values were obtained:
[1] = molecular target: T1, human NPR1 on CHO-K1 cells (human, UniProt P16066 33-1061); experiment: cell-based or functional assay
T1 sequence: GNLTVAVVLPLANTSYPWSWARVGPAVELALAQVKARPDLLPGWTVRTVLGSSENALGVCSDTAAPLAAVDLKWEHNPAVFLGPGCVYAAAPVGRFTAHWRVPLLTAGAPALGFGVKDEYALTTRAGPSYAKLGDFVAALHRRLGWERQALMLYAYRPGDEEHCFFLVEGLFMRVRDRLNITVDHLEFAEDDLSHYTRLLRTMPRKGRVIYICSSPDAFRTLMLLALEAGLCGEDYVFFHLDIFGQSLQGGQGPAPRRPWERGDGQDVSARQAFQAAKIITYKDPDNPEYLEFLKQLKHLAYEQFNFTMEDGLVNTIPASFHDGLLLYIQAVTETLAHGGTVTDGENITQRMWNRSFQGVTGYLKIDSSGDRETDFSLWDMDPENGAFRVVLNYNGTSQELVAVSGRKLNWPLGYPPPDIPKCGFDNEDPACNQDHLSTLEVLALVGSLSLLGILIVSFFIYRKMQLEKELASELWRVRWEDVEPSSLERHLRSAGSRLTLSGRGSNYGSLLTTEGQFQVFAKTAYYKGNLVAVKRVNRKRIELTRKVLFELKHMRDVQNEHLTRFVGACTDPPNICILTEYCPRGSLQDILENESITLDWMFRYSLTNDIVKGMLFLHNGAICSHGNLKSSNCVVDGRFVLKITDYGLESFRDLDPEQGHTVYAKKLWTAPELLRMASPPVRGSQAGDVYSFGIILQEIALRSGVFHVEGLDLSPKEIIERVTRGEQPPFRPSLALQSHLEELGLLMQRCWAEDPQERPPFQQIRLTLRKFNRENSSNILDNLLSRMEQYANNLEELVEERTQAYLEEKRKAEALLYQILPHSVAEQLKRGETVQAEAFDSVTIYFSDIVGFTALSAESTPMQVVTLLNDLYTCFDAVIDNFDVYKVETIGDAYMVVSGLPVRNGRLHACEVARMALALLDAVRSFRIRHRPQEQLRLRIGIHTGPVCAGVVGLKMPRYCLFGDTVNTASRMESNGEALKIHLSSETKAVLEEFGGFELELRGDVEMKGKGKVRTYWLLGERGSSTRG

[2] = molecular target: T2, human Natriuretic Peptide Receptor 1 (hNPR1) (human, UniProt P16066 33-473, limits assumed); experiment: FabCys affinity (Octet per Table 18 comment)
T2 construct: pannings used NPR1-hFc; also called NPR1-hFc
T2 sequence: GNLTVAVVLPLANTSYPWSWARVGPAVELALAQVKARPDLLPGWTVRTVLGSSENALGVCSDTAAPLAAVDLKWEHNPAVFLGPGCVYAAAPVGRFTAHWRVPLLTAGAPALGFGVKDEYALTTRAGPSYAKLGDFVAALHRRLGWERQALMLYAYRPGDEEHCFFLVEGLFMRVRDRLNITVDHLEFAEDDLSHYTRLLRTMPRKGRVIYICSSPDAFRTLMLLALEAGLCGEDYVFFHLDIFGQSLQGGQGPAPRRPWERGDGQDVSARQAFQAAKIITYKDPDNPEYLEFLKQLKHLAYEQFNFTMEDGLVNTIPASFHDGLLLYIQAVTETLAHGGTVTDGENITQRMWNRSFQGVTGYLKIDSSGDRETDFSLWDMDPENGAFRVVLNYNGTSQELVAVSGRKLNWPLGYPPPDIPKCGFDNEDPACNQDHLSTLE

hNPR1-ANP complex [3] = molecular target: T3, hNPR1-ANP complex (human, UniProt P01160 124-151, limits assumed); experiment: FabCys affinity (Octet per Table 18 comment)
T3 construct: hNPR1 antigen in the presence of ANP; also called hNPR1 + 100 nM ANP
T3 sequence: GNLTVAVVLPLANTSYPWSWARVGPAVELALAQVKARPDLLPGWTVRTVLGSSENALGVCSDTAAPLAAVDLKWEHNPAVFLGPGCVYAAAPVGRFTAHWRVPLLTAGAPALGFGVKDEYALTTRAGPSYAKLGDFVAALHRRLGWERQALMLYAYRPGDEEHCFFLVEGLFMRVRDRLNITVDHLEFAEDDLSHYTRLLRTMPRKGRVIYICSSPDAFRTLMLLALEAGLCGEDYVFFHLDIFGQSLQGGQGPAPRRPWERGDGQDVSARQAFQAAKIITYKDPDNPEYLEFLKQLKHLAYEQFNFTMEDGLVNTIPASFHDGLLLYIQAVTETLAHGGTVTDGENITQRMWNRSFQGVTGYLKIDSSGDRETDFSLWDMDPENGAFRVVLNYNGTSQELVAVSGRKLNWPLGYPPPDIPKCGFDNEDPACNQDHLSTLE
T3 sequence (peptide): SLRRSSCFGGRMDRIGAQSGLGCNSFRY

rat NPR1 (rNPR1) [4] = molecular target: T4, rat NPR1 (rNPR1) (rat, UniProt P18910 29-469, limits assumed); experiment: FabCys affinity (Octet per Table 18 comment)
T4 construct: Soluble antigen
T4 sequence: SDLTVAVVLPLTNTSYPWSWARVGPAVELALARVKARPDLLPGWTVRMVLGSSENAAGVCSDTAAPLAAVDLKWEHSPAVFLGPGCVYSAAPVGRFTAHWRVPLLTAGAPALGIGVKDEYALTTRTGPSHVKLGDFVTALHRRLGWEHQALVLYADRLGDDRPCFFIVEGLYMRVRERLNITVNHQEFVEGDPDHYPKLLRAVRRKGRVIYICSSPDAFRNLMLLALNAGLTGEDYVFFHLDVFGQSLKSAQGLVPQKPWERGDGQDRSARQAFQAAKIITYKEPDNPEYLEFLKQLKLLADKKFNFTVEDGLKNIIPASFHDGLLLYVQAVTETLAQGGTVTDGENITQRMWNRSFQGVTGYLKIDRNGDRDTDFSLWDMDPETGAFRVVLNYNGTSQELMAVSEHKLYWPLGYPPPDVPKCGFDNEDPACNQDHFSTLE

rNPR1-ANP complex [5] = molecular target: T5, rNPR1-ANP complex (rat, UniProt P01160 124-151 (human entry), limits assumed); experiment: FabCys affinity (Octet per Table 18 comment)
T5 construct: rNPR1 antigen in the presence of ANP; also called rNPR1 + 100 nM ANP
T5 sequence: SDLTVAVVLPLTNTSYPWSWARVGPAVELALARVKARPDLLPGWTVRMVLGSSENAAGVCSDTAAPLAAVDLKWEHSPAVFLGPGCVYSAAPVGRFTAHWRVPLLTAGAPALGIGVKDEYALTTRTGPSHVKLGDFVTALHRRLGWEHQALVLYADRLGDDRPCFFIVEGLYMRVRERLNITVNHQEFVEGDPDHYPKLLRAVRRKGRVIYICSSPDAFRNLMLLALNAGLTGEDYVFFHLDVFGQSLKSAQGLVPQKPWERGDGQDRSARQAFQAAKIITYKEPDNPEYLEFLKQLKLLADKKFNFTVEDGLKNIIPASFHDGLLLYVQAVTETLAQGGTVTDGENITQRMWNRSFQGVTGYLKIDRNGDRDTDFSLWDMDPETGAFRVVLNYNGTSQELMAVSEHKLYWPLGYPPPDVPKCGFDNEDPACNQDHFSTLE
T5 sequence (peptide): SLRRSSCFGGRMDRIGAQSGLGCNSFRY

[6] = molecular target: T2, human Natriuretic Peptide Receptor 1 …; experiment: FabCys, parental value by Octet, assay limit reached (table comment), as in Table 14
hNPR1-ANP complex [7] = molecular target: T3, hNPR1-ANP complex; experiment: as above
rat NPR1 (rNPR1) [8] = molecular target: T4, rat NPR1 (rNPR1); experiment: as above
rNPR1-ANP complex [9] = molecular target: T5, rNPR1-ANP complex; experiment: as above

B1: YY05 (FabCys format) (Fab, V domains shown)
VH: EVQLVQSGAEVKKPGESLKISCKGSGYSFTSYWISWVRQMPGKGLEWMGIIYPGTSYTRYSPSFQGQVTISADKSISTAYLQWSSLKASDTAMYYCARGAVAGQLGFDHWGQGTLVTVSS
VL: QSVLTQPPSVSGAPGQRVTISCTGSSSNIGAGYDVHWYQQLPGTAPKLLIYGNSNRPSGVPDRFSGSKSGTSASLAITGLQAEDEADYYCQSYYTSSHGPVFGGGTKLTVL
notes: Monovalent FabCys
Q: How did the “cGMP conc [nM] at 1 µM FabCys, +0.075 nM ANP” value [1] turn out when B1 was run?
A: 227 nM

Q: And the “cGMP conc [nM] at 1 µM FabCys, without ANP” value [1]?
A: 207 nM

Q: What about the Kd [2] of the same binder?
A: 0.9 nM

Q: What about the Kd (hNPR1-ANP complex [3]) of the same binder?
A: 350 nM

Q: And the Kd (rat NPR1 (rNPR1) [4])?
A: 700 nM

Q: What about the Kd (rNPR1-ANP complex [5]) of the same binder?
A: 16000 nM

Q: And the Kd [6]?
A: 0.9 nM

Q: And the Kd (hNPR1-ANP complex [7])?
A: 350 nM

Q: What about the Kd (rat NPR1 (rNPR1) [8]) of the same binder?
A: 700 nM

Q: What about the Kd (rNPR1-ANP complex [9]) of the same binder?
A: 16000 nM

— patent US20240052042A1 (Novartis, published 2024)
